Sequences and labels used below:
B1: rat mutated neublastin NBN106-N95K (non-PEGylated) (ligand)
chain: ARATDARGCRLRSQLVPVSALGLGHSSDELIRFRFCSGSCRRARSPHDLSLASLLGAGALRSPPGSRPISQPCCRPTRYEAVSFMDVKSTWRTVDHLSATACGCLG
B2: 3(,4) X 10 kDa PEG NBN106-N95K (ligand)
chain: B1 chain
modifications: average of 3.3 10 kDa PEG (SPA-PEG) per dimer: on both amino-terminal amino acids and on one or both Lys95 (PEGylated amino acids 1,1,95 (,95))
B3: 3 X 10 kDa PEG-WT/N95K-NBN106 (ligand)
chain 1: B1 chain with K88N
chain 2: B1 chain
modifications: 10 kDa PEG on the amino-terminal amino acid and on Lys95; 10 kDa PEG on the amino-terminal amino acid
B4: 3 X 10 kDa PEG NBN106-N95K (ligand)
chain: B1 chain
modifications: three 10 kDa PEG per dimer: on both amino-terminal amino acids and on one Lys95 (PEGylated amino acids 1,1,95)
B5: 4 X 5 kDa PEG NBN106-N95K (ligand)
chain: B1 chain
modifications: 5 kDa PEG on the amino-terminal amino acid and on Lys95 of each chain (PEGylated amino acids 1,1,95,95)
B6: 2 X 10 kDa PEG-NBN (ligand)
chain: AGTRSSRARATDARGCRLRSQLVPVSALGLGHSSDELIRFRFCSGSCRRARSPHDLSLASLLGAGALRSPPGSRPISQPCCRPTRYEAVSFMDVNSTWRTVDHLSATACGCLG
modifications: 10 kDa PEG on amino acid 1 of each chain (PEGylated amino acids 1,1)
B7: 2 X 5 kDa PEG-NBN (ligand)
chain: B6 chain
modifications: 5 kDa PEG on amino acid 1 of each chain (PEGylated amino acids 1,1)
B8: 1 X 20 kDa Branched PEG-NBN (ligand)
chain: B6 chain
modifications: one 20 kDa branched PEG per dimer, on amino acid 1 of one chain (PEGylated amino acids: 1)
B9: 2 X 20 kDa PEG-NBN (ligand)
chain: B6 chain
modifications: 20 kDa PEG on amino acid 1 of each chain (cell printed '1,1 1')
B10: 4 X 10 kDa PEG NHN106-N95K: homodimer of NBN106-N95K conjugated to four 10 kDa PEG moieties (conjugate)
chain: B1 chain
B11: 3 X 10 kDa PEG NBN106-N95K: homodimer of NBN106-N95K conjugated to three 10 kDa PEG moieties (conjugate)
chain: B1 chain
B12: 1 X 20 kDa PEG-NBN104 (CHO): CHO derived NBN104 dimer glycosylated at 95,95 with one 20 kDa PEG at amino acid 1 (conjugate)
chain: AAGARGCRLRSQLVPVRALGLGHRSDELVRFRFCSGSCRRARSPHDLSLASLLGAGALRPPPGSRPVSQPCCRPTRYEAVSFMDVNSTWRTVDRLSATACGCLG
B13: 2 X 20 kDa PEG-NBN104 (CHO): CHO derived NBN104 dimer glycosylated at 95,95 with two 20 kDa PEGs at amino acids 1,1 (conjugate)
chain: B12 chain
B14: 2 X 20 kDa Branched PEG NBN106-N95K: NBN106-N95K dimer with two branched 20 kDa PEGs at amino acids 1,95 (conjugate)
chain: B1 chain
B15: 3 X 10 kDa PEG-WT/ N95K-NBN106: wild-type/N95K NBN106 heterodimer with three 10 kDa PEGs at amino acids 1,1,95 (conjugate)
chain 1: B1 chain with K88N
chain 2: B1 chain
B16: 2 X 20 kDa PEG-NBN: E. coli derived NBN113 dimer with two 20 kDa PEGs at amino acids 1,1 (conjugate)
chain: B6 chain

What is called EC50 is the midpoint of the concentration-response curve.

Substitutions are numbered along the chain they refer to. Names and notes keep the numbering of the source.

The target in one data set is T1, c-Ret on NB41A3-mRL3 cells (UniProt P35546 29-1115, limits assumed). The data set is described as follows: cell-based or functional assay.
T1 sequence (P35546 29-1115 limits assumed): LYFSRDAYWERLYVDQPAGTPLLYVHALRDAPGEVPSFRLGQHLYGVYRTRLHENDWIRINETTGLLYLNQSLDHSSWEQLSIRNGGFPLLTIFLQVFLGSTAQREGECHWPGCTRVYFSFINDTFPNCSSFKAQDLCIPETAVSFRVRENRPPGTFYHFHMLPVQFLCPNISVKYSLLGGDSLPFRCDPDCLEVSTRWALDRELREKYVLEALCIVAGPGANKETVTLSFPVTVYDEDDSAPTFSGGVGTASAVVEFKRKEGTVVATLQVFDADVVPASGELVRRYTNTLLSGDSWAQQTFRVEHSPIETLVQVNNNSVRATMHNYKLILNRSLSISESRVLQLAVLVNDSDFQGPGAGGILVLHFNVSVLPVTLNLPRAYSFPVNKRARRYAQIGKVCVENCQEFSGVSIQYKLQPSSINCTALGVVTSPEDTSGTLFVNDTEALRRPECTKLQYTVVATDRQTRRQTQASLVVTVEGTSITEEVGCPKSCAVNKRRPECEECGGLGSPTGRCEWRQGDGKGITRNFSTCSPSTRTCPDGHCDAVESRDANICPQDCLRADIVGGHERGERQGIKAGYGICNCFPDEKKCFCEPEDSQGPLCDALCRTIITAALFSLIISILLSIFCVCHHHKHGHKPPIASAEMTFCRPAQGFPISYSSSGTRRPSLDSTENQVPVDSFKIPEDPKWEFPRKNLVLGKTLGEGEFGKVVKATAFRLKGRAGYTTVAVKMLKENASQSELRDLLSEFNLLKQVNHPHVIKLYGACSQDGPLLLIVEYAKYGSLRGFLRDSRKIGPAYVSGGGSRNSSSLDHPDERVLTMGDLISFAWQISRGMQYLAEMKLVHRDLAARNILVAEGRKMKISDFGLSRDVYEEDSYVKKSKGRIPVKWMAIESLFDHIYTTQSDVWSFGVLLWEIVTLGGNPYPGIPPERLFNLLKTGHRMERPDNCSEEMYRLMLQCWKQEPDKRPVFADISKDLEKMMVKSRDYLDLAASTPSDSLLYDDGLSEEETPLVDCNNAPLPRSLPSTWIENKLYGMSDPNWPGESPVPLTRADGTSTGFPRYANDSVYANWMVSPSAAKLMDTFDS
Conditions: not given
On to B1, for which the “specific activity in the KIRA ELISA” value is approximately 10 nM.

As to B2, the “specific activity in the KIRA ELISA” value was 10 nM.

The target in the next data set is T1, c-Ret on NB41A3-mRL3 cells. The data set is described as follows: cell-based or functional assay.
Conditions: not given
This is another data set of the same source.
As for B3, the “KIRA: ∼EC50” value was approximately 700 pM and the “KIRA: ∼Max Efficacy vs WT” value was approximately 115%.

As for B4, the “KIRA: ∼EC50” value was approximately 800 pM and the “KIRA: ∼Max Efficacy vs WT” value is approximately 100%.

For B5, the “KIRA: ∼EC50” value is approximately 1000 pM and the “KIRA: ∼Max Efficacy vs WT” value was approximately 80%.

Regarding B2, the “KIRA: ∼EC50” value is approximately 1600 pM and the “KIRA: ∼Max Efficacy vs WT” value was approximately 90%.

For the molecule B6, the “KIRA: ∼EC50” value is approximately 200 pM and the “KIRA: ∼Max Efficacy vs WT” value is approximately 72%.

For B7, the “KIRA: ∼EC50” value is approximately 200 pM and the “KIRA: ∼Max Efficacy vs WT” value is approximately 105%.

For the molecule B8, the “KIRA: ∼EC50” value was approximately 200 pM and the “KIRA: ∼Max Efficacy vs WT” value was approximately 83%.

On to B9, for which the “KIRA: ∼EC50” value is approximately 600 pM and the “KIRA: ∼Max Efficacy vs WT” value is approximately 80%.

The target in the next data set is T1, c-Ret on NB41A3-mRL3 cells. The data set is described as follows: cell-based or functional assay.
Conditions: not given
The source holds these as a separate data set.
As for “BSA-conjugated neublastin (monosubstituted product) (from UniProt P02769 25-607)”, the IC50 in the KIRA ELISA is 3000 to 6000 pM.

Molecule “1 X 20 kDa PEG-NBN104 (CHO) (from UniProt Q5T4W7 117-220) (ligand)” registered a KIRA: ∼EC50 of 300 pM and a KIRA: ∼Max Efficacy vs WT of 110%.

With “2 X 20 kDa PEG-NBN104 (CHO) (from UniProt Q5T4W7 117-220) (ligand)”, the KIRA: ∼EC50 was 1000 pM and the KIRA: ∼Max Efficacy vs WT stood at 105%.

Molecule “NBN104 (CHO) (from UniProt Q5T4W7 117-220) (ligand)” came in with a KIRA: ∼EC50 of 700 pM and a KIRA: ∼Max Efficacy vs WT of 90%.

The target in the next data set is T2, c-Ret (Mus musculus, UniProt O35118+P35546).
T2 construct: NB41A3-mRL3 cells, an adherent murine neuroblastoma cell line which expresses Ret and GFRα3; endogenous in cells; host or cells: NB41A3-mRL3 (murine neuroblastoma)
T2 sequence (P35546 29-1115): as the sequence (P35546 29-1115 limits assumed) above
T2 sequence (O35118 29-397): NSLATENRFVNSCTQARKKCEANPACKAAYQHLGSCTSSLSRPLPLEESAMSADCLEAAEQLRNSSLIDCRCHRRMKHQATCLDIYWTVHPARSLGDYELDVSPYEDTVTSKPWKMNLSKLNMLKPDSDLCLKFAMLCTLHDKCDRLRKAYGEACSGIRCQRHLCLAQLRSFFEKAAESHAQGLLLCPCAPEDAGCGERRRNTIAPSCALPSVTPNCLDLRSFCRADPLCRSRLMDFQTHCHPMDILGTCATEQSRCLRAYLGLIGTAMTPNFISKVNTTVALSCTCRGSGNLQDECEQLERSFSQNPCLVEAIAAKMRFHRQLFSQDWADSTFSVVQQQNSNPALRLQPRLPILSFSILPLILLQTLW
The data set is described as follows: Kinase Receptor Activation (KIRA) ELISA: neublastin dependent phosphorylation of c-Ret in NB41A3-mRL3 cells. It is filed as cell-based, murine.
Conditions: not given
The method, then: The potency of PEGylated mutated rat neublastin was measured using neublastin dependent activation/ phosphorylation of c-Ret as a reporter for neublastin activity in an ELISA that was specific for the presence of phosphorylated RET. NB41A3-mRL3 cells, an adherent murine neuroblastoma cell line which expresses Ret and GFRα3, were plated at 2 x 10^5 cells per well in 24-well plates in Dulbecco's modified eagle medium (DMEM), supplemented with 10 % fetal bovine serum, and cultured for 18 h at 37 °C and 5 % CO2.
The cells were washed with PBS, and treated with serial dilutions of neublastin in 0.25 mL of DMEM for 10 min at 37°C and 5 % CO2. Each sample was analyzed in duplicate. The cells were washed with 1 mL of PBS, and lysed for 1h at 4 °C with 0.30 mL of 10 mM Tris HC1, pH 8.0, 0.5 % Nonidet P40, 0.2 % sodium deoxycholate, 50 mM NaF, 0.1 mM Na3 VO4,1 mM phenylmethylsulfonyl fluoride with gently rocking the plates. The lysates were further agitated by repeated pipetting and 0.25 mL of sample was transferred to a 96-well ELISA plate that had been coated with 5 µg/mL of anti-Ret mAb (AA.GE7.3) in 50 mM carbonate buffer, pH 9.6 at 4°C for 18 h, and blocked at room temperature for one hour with block buffer (20 mM Tris HC1 pH 7.5, 150 mM NaCl, 0.1% Tween-20 (TBST) containing 1 % normal mouse serum and 3 % bovine serum albumin).
After a 2 h incubation at room temperature, the wells were washed 6-times with TBST. Phosphorylated Ret was detected by incubating the wells at room temperature for 2 h with 2 µg/mL of horseradish peroxidase (HRP)-conjugated anti-phosphotyrosine 4G10 antibody in block buffer, washing 6-times with TBST, and measuring HRP activity at 450 nm with a colorometric detection reagent. The absorbance values from wells treated with lysate or with lysis buffer were measured and the background corrected signal was plotted as a function of the concentration of neublastin present in the activation mixture.
Neublastin activity was determined by its ability to stimulate c-Ret phosphorylation in NB41A3-mRL3 cells using the KIRA ELISA described in Example 3. Phosphorylated Ret was detected by incubating (2 hours) the captured receptor with HRP-conjugated phosphotyrosine antibody (4G10; 0.2 µg per well). Following the incubation, the wells were washed six times with TBST, and the HRP activity detected at 450 nm with a colorimetric assay. The absorbance values from wells treated with lysate or with lysis buffer alone were measured, background corrected, and the data plotted as a function of the concentration of neublastin present in the activation mixture.
(In general: An ELISA detects its analyte on a solid surface through an enzyme-linked reagent.)
Consider B10, for which the “fold less potent than non-mutated (wild-type) NBN113 in activating Ret” value was “approximately 10 fold”.

Staying with this data set, now noted: compared with wild-type NBN113 / mature form.
For the molecule B10, the “activity / potency in the KIRA ELISA (in words)” value is “reduced potency”.

In the case of B11, the “activity / potency in the KIRA ELISA (in words)” value is “fully active”.

The data set is the same for the next values; noted with them: estimated EC50, NB41A3-mRL3 cells.
For the molecule B12, the EC50 was 300 pM.

On to B13, for which the EC50 was 1000 pM.

As for B14, the “KIRA: ~EC50” value is “inactive”.

The same data set, now with this note: relative to wild-type, NB41A3-mRL3 cells.
In the case of B12, the “KIRA: ~Max Efficacy vs WT” value is recorded as 110%.

B13: the “KIRA: ~Max Efficacy vs WT” value is reported as 105%.

In the case of B14, the “KIRA: ~Max Efficacy vs WT” value is “inactive”.

System in another data set: not given
Test: not given
More on the design: species or system mice. To be noted: mouse, in vivo, sc. The text has this:
The pharmokinetic properties of various PEGylated and non-PEGylated mutated neublastin products in rat and mouse models were examined (see Table 8 for summary of results). The analysis of the PEGylated […] samples are complicated by the presence of adducts comprising 2, 3 and 4 PEGs per molecule, which each will display a different PK profile. In early PK studies, mice were used to facilitate screening through a variety of candidates and routes of administration. […] This difference in bioavailability was particularly pronounced following i.p. administration. Levels in mice reached 1600 ng/mL after 7 hr and remained at 400 ng/mL after 24 hr. In contrast, rat levels were constant at 100 ng/mL for 4-48 hr. Two surprising and unexpected results emerged from the PK studies summarized in Table 8: 1) PEGylation of the amino-terminal amino acids of non-glycosylated neublastin was not sufficient to increase serum exposure substantially, and 2) PEGylation of the amino-terminal amino acid(s) of neublastin together with modification (e.g. PEGylation or glycosylation) of amino acid 95 was sufficient to increase serum exposure substantially.
Take B12: the “Exposure in Mice After s.c. Administration” value is reported as “++” and the “serum exposure after s.c. administration (in words)” value (“serum exposure” below) is reported as “high serum exposure”.

As to B13, the “Exposure in Mice After s.c. Administration” value is recorded as “++” and the “serum exposure” value is “high serum exposure”.

On to B10, for which the “Exposure in Mice After s.c. Administration” value is recorded as “++”.

As to B11, the “Exposure in Mice After s.c. Administration” value is listed as “++”.

Consider B15, for which the “Exposure in Mice After s.c. Administration” value is “++”.

Regarding B14, the “Exposure in Mice After s.c. Administration” value is recorded as “++”.

Take B16: the “Exposure in Mice After s.c. Administration” value is “+” and the “serum exposure” value is “low-to-moderate serum exposure”.
